Source: patent US20250051473A1 (IGM BIOSCIENCES, published 2025)

How the values were obtained:
[1] = biological target: T1, recombinant cynomolgus monkey CD38 extracellular domain protein (ACROBiosystems) (cynomolgus monkey, UniProt Q5VAN0 44-301); assay: ELISA screen of hybridoma supernatants on recombinant CD38
T1 construct: Bought extracellular domain protein; also called cyno CD38; recombinant cyno CD38

[2] = biological target: T2, recombinant human CD38 extracellular domain protein (ACROBiosystems, Cat #CD8-H5224) (human, UniProt P28907 43-300); assay: BLI (Octet 384), IgG on anti-human IgG Fc biosensors, soluble human CD38 as analyte, 1:1 global fit
T2 construct: Bought protein; also called recombinant human CD38 protein
Description: Samples and buffer were applied in 384-well plates. After an initial baseline calibration for 60 seconds, sensors were loaded with 20 nM of IgG antibodies. The biosensors were dipped into buffer to reach a baseline value and incubated for 600 seconds with 2-fold serial diluted human CD38 protein starting at 100 nM for association, followed by 900 seconds in buffer for dissociation.

[3] = biological target: T2, recombinant human CD38 extracellular …; assay: ELISA screen of hybridoma supernatants on recombinant CD38

binding result [1] | Kd [2] [nM] | koff [2] [s⁻¹] | kon [2] [M⁻¹ s⁻¹] | binding result [3] | Binder
binds | – | – | – | – | Clone B (antibody, V domains shown, Murine hybridoma antibody tested as supernatant; also called anti-CD38 murine hybridoma clone B) VH: QAYLQQSGAEVVRSGASVKMSCKAAGYTFTSYNMHWVKQTPGQGLEWIGYIYPGNGGTNYNQKFKGKATLTADTSSTTAYMQISSLTSEDSAVYFCARGASMITTGAWFAYWGQGTLVTVSA VL: NIVLTQSPASLAVSLGQRATISCRASESLDTYGNSFMYWYQQKPGQPPKLLIYLASSLESGVPARFSGSGSRTDFTLTIDPVEADDAATYYCHQNHEDPWTFGGGTKLEIK
binds | – | – | – | binds | Clone F (antibody, V domains shown, Murine hybridoma antibody tested as supernatant; also called anti-CD38 murine hybridoma clone F) VH: EVQLQQSGAEFVRPGASVKLSCTASGFNIKDSLMHWVKQRPEQGLEWIGWIDPEDDKTKYAPKFQDEATLTADTSSNTAYLHLSSLTSEDTAIYYCARRFLRGFAYWGQGTLVTVSA VL: DIVMTQSPSSLSVSAGEKVTMSCKSSQSLLNSGNQKNYLAWYQQKPGQPPKLLIYGASTRESGVPDRFTGSGSGTDFTLTISSVQAEDLAVYYCQNDHSYPYTFGGGTKLEIK
binds | – | – | – | binds | Clone A (antibody, V domains shown, Murine hybridoma antibody tested as supernatant; also called anti-CD38 murine hybridoma clone A) VH: QVQLQQSGAELVKPGASVKISCKASGYTFSNYWIEWVKQRPGLGLEWIGDILPGSGTTNYNEKFKGKATFTADTSSNTAYMQLSSLTSEDSAVYYCAGYGNYLWFTYWGQGTLVTVSA VL: DIQMNQSPSSLSASLGDTITITCHASQNINVWLSWYQQKPGNIPKLLIYKASNLHTGVPSRFSGSGSGTGFTLTISSLQPEDIATYYCQQGQSYPYTFGGGTKLEIK
binds | – | – | – | – | Clone E (antibody, V domains shown, Murine hybridoma antibody tested as supernatant; also called anti-CD38 murine hybridoma clone E) VH: QVQLQQSGAELVRPGTSVKMSCKAAGYTFTNHWIEWVKQRPGHGLEWIGDIFPGGGYTDYNEKFKGKATLTADTSSSTAYMQLSSLTSEDSAIYYCARGRDLAMDYWGQGTSVTVSS VL: DIQMNQSPSSLSASLGDTITITCHASQNINVWLGWYQQKPGNIPKLLIYKASNLHTGVPSRFSGSGSGTGFTLTISSLQPEDIATYYCQQGQSYPYTFGGGTKLEIK
binds | – | – | – | binds | Clone C (antibody, V domains shown, Murine hybridoma antibody tested as supernatant; also called anti-CD38 murine hybridoma clone C) VH: EVQLQQSGTVLARPGASVKMSCKASGYTFTRYWMHWVKQRPGQDLEWIGGFYPGNSDTRYNQKFKDKAKLTAVTSTSTAYMELSSLTNEDSAVYYCTRGDRHDEGFAYWGQGTLVTVSA VL: DIQMTQSPASLSASVGETVTITCRASGNIHNYLAWYQQKQGKSPQLLVYNAKTLPDGVPSRFSGSGSGTQYSLKINSLQPEDFGTYYCQNIWTNYTFGGGTKLEIK
binds | – | – | – | binds | Clone G (antibody, V domains shown, Murine hybridoma antibody tested as supernatant; also called anti-CD38 murine hybridoma clone G) VH: QVQLQQPGPELVKPVASVKISCKTSDYAFSSSWMNWVKQRPGKGLEWIGWIYPGDGDTNYNGKFKGKATLTADKSSSTAYMQLSSLTSEDSAVYFCARGRWGMDNWGQGTSVTVSS VL: DIVMTQSHKFMSTSVGDRVSITCKASQNVVTAVAWYQQKPGQSPKLLIYWASSRHTGVPDRFTGSGSGTDFTLTISNVQSEDLADYFCQQYSNYPFTFGSGTKLEIK
binds | – | – | – | binds | Clone I (antibody, V domains shown, Murine hybridoma antibody tested as supernatant; also called anti-CD38 murine hybridoma clone I) VH: QVPLQQSGPELVKPGASVKISCKASDSAFNNSWTIWVRQRPGKGLEWIGWIYPGDDDTKYNGKFMGKATLTADKSSGTAYMQLSSLTSEDSAVYFCARGRWGMDYWGQGTSVTVSS VL: DIVMTQSRKFMSTSVGDRVSISCKASQNVVTAVAWYQQKPGQSPKLLIYWASTRHTGVPDRFTGSGSGTDFTLTISNVQSEDLADYFCQQYSNYPFTFGSGTELEIK
binds | – | – | – | binds | Clone D (antibody, V domains shown, Murine hybridoma antibody tested as supernatant; also called anti-CD38 murine hybridoma clone D) VH: QIQLVQSGPELKKPGETVKISCKASGYTFTNYGMNWVKQAPGEDLKWMGWLNTNTGEPTYAEEFKGRFAFSLETSASTAYLQINNLRNEDTATYFCARWYYGSSDNSYAMDYWGQGTSVTVSS VL: ETIVTQFPASLSMAIGEKVTIRCITSTDIDDDMNWYQQRPGEPPKLLISEGNTLRPGVPSRFSSSGYGTDFVFTFENMLSEDVADYYCLQSDSLPYTVGGGTRLEIK

Further lines, the binder ahead of its results:

Binder | binding result [1] | Kd [2] [nM] | koff [2] [s⁻¹] | kon [2] [M⁻¹ s⁻¹] | binding result [3]
IgG B-1 (antibody, V domains shown, also called chimeric IgG of Clone B) VH: QAYLQQSGAEVVRSGASVKMSCKAAGYTFTSYNMHWVKQTPGQGLEWIGYIYPGNGGTNYNQKFKGKATLTADTSSTTAYMQISSLTSEDSAVYFCARGASMITTGAWFAYWGQGTLVTVSA VL: NIVLTQSPASLAVSLGQRATISCRASESLDTYGNSFMYWYQQKPGQPPKLLIYLASSLESGVPARFSGSGSRTDFTLTIDPVEADDAATYYCHQNHEDPWTFGGGTKLEIK | – | 0.526 | 7.32e-05 | 139000 | –
IgG OKT10-2 (antibody, V domains shown, also called humanized OKT10 IgG (OKT10VH2 / OKT10VL2)) VH: EVQLLESGGGLVQPGGSLRLSCAASGFDFSRSWMNWVRQAPGKGLEWVSEINPDSSTINYATSLKDRFTISRDNSKNTLYLQMNSLRAEDTAVYYCARYGNWFPYWGQGTLVTVSS VL: DIQMTQSPSSLSASVGDRVTITCKASQNVDTNVAWYQQKPGKAPKALIYSASYRYSGVPSRFSGSGSGTDFTLTISSLQPEDFATYYCQQYDSYPLTFGQGTKVEIK | – | 28.3 | 0.0113 | 400000 | –
IgG E-1 (antibody, V domains shown, also called chimeric IgG of Clone E) VH: QVQLQQSGAELVRPGTSVKMSCKAAGYTFTNHWIEWVKQRPGHGLEWIGDIFPGGGYTDYNEKFKGKATLTADTSSSTAYMQLSSLTSEDSAIYYCARGRDLAMDYWGQGTSVTVSS VL: DIQMNQSPSSLSASLGDTITITCHASQNINVWLGWYQQKPGNIPKLLIYKASNLHTGVPSRFSGSGSGTGFTLTISSLQPEDIATYYCQQGQSYPYTFGGGTKLEIK | – | 1.99 | 0.00117 | 587000 | –
IgG OKT10-1 (antibody, V domains shown, also called parental OKT10 in IgG format) VH: EVKLQESGGGLVQPGGSLKLSCAASGFDFSRSWMNWVRQAPGKGLEWIGEINPDSSTINYTTSLKDKFIISRDNAKNTLYLQMTKVRSEDTALYYCARYGNWFPYWGQGTLVTVSA VL: DIVMTQSPKIMPTSVGDRVSVTCKASQNVDTNVAWYQQKPGQSPKALIYSASYRYSGVPDRFTGSGSGTDFTLTITNVQSEDLAEYFCQQYDSYPLTFGAGTKLDLK | – | 5.97 | 0.00206 | 344000 | –
IgG E-2 (antibody, V domains shown, also called humanized Clone E IgG (EVH1 / EVL1)) VH: QVQLVQSGAEVKKPGSSVKVSCKASGYTFTNHWIEWVRQAPGQGLEWMGDIFPGGGYTDYNEKFKGRVTITADESTSTAYMELSSLRSEDTAVYYCARGRDLAMDYWGQGTLVTVSS VL: DIQMTQSPSSLSASVGDRVTITCHASQNINVWLGWYQQKPGKAPKLLIYKASNLHTGVPSRFSGSGSGTDFTLTISSLQPEDFATYYCQQGQSYPYTFGQGTKVEIK | – | 7.62 | 0.00378 | 496000 | –
IgG B-2 (antibody, V domains shown, also called humanized Clone B IgG (BVH1 / BVL1)) VH: QVQLVQSGAEVKKPGSSVKVSCKASGYTFTSYNMHWVRQAPGQGLEWMGYIYPGNGGTNYNQKFKGRVTITADESTSTAYMELSSLRSEDTAVYYCARGASMITTGAWFAYWGQGTLVTVSS VL: DIQMTQSPSSVSASVGDRVTITCRASESLDTYGNSFMYWYQQKPGKAPKLLIYLASSLESGVPSRFSGSGSGTDFTLTISSLQPEDFATYYCHQNHEDPWTFGQGTKVEIK | – | 0.8 | 0.000225 | 281000 | –
Clone H (antibody, V domains shown, Murine hybridoma antibody tested as supernatant; also called anti-CD38 murine hybridoma clone H) VH: QVPLHQSGPELIKPGASLKISCKASDSAFNNSWMNWVRQRPGKGLEWIGWIYPGDDDTKYNGKFMGKATLTADKSSGTAYMQLSSLTSEDSAVYFCARGRWGMDYWGQGTSVTVSS VL: DIVMTQFHNFMSTSVGDRVNINCKASQNVVTAVAWYQQKPGQSPKLLIYWASTRHTGVPDRFTGSGSGTDFTLTISNVQSEDLADYFCQQYSNYPFTFGSGTKLEIK | binds | – | – | – | binds
